# Test results from patent US20250154277A1 (CONCEPT TO MEDICINE BIOTECH, published 2025).
# T1: human 5T4-His protein (human, UniProt Q13641 32-355)
# T1 construct: also called recombinant 5T4 protein (human 5T4-his tag); human 5T4 protein; not shown: His tag
# T1 sequence (looked up): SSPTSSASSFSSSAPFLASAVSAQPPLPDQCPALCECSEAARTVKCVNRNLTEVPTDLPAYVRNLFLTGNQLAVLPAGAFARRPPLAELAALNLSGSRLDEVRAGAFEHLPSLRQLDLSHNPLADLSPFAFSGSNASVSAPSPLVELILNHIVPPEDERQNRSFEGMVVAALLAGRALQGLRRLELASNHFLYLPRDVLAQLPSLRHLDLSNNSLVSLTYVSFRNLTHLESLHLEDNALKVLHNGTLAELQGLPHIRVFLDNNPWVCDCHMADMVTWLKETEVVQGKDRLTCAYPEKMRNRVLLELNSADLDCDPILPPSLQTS
# Molecular target: T1, human 5T4-His protein
# Assay: ELISA, coated 5T4-His
# Protocol: To evaluate the binding activity of 14G12 humanized antibodies to human 5T4, the 14G12 chimeric antibody along with 14G12 humanized mAbs were subjected to ELISA test.
# Briefly, microtiter plates were coated with human 5T4-His protein at 1 μg/ml in PBS, 100 μl/well at 4° C. overnight, then blocked with […]. Serial dilutions of antibodies were added to each well and incubated for 1 hour at 37° C. The plates were washed with PBS/Tween and then incubated with Goat Anti-Human IgG-HRP for 30 mins at 37° C. After washing, the plates were developed with TMB substrate and analyzed by spectrophotometer at OD 450 nm. As shown in FIG. 10 and Table 6, most of the humanized antibodies bound to human 5T4 at high activity.
row,Binder,EC50
1,"Hu14G12-33 (antibody, V domains shown, humanized) VH: QVQLVQSGAEVKKPGASVKVSCKASGYAFSSSWMNWVRQAPGQGLEWMGRIYREDGHTNYNGKFKGRVTMTADKSTTTAYMELSSLRSEDTAVYYCANGGAMDYWGQGTLVTVSS VL: DIQMTQSPSSLSASVGDRVTITCRASQDISNYLNWYQQKPGKAPKLLIYYTSRLHSGVPSRFSGSGSGTDYTFTISSLQPEDIATYFCQQDNTLPWTFGGGTKVEIK",0.011 µg/mL
2,"Hu14G12-24 (antibody, V domains shown, humanized) VH: QVQLVQSGAEVKKPGSSVKVSCKASGYAFSSSWMNWVRQAPGQGLEWMGRIYREDGHTNYNGKFKGRVTITADKSTTTAYMELSSLRSEDTAVYYCANGGAMDYWGQGTLVTVSS VL: DIQMTQSPSSLSASVGDRVTITCRASQDISNYLNWYQQKPGKAPKLLIYYTSRLHSGVPSRFSGSGSGTDYTLTISSLQPEDIATYFCQQDNTLPWTFGGGTKVEIK",0.0049 µg/mL
3,"Hu14G12-27 (antibody, V domains shown, humanized) VH: QVQLVQSGAEVKKPGSSVKVSCKASGYAFSSSWMNWVRQAPGQGLEWMGRIYREDGHTNYNGKFKGRVTITADKSTTTAYMELSSLRSEDTAVYYCANGGAMDYWGQGTLVTVSS VL: DIQMTQSPSTLSASVGDRVTITCRASQDISNYLNWYQQKPGKAPKLLIYYTSRLHSGVPSRFSGSGSGTEYTLTISSLQPDDIATYFCQQDNTLPWTFGGGTKVEIK",0.0078 µg/mL
4,"Hu14G12-34 (antibody, V domains shown, humanized) VH: QVQLVQSGAEVKKPGASVKVSCKASGYAFSSSWMNWVRQAPGQGLEWMGRIYREDGHTNYNGKFKGRVTMTADKSTTTAYMELSSLRSEDTAVYYCANGGAMDYWGQGTLVTVSS VL: DIQMTQSPSSLSASVGDRVTITCRASQDISNYLNWYQQKPGKAPKLLIYYTSRLHSGVPSRFSGSGSGTDYTLTISSLQPEDIATYFCQQDNTLPWTFGGGTKVEIK",0.0087 µg/mL
5,"Hu14G12-38 (antibody, V domains shown, humanized) VH: QVQLVQSGAEVKKPGASVKVSCKASGYAFSSSWMNWVRQAPGQRLEWMGRIYREDGHTNYNGKFKGRVTITADKSATTAYMELSSLRSEDTAVYYCANGGAMDYWGQGTLVTVSS VL: DIQMTQSPSSLSASVGDRVTITCRASQDISNYLNWYQQKPGKAPKLLIYYTSRLHSGVPSRFSGSGSGTDYTFTISSLQPEDIATYFCQQDNTLPWTFGGGTKVEIK",0.0064 µg/mL
6,"Hu14G12-39 (antibody, V domains shown, humanized) VH: QVQLVQSGAEVKKPGASVKVSCKASGYAFSSSWMNWVRQAPGQRLEWMGRIYREDGHTNYNGKFKGRVTITADKSATTAYMELSSLRSEDTAVYYCANGGAMDYWGQGTLVTVSS VL: DIQMTQSPSSLSASVGDRVTITCRASQDISNYLNWYQQKPGKAPKLLIYYTSRLHSGVPSRFSGSGSGTDYTLTISSLQPEDIATYFCQQDNTLPWTFGGGTKVEIK",0.0069 µg/mL
7,"Hu14G12-42 (antibody, V domains shown, humanized) VH: QVQLVQSGAEVKKPGASVKVSCKASGYAFSSSWMNWVRQAPGQRLEWMGRIYREDGHTNYNGKFKGRVTITADKSATTAYMELSSLRSEDTAVYYCANGGAMDYWGQGTLVTVSS VL: DIQMTQSPSTLSASVGDRVTITCRASQDISNYLNWYQQKPGKAPKLLIYYTSRLHSGVPSRFSGSGSGTEYTLTISSLQPDDIATYFCQQDNTLPWTFGGGTKVEIK",0.0078 µg/mL
8,"Hu14G12-17 (antibody, V domains shown, humanized) VH: QVQLVQSGAEVKKPGSSVKVSCKASGGTFSSSWMNWVKQAPGQGLEWIGRIYREDGHTNYNGKFKGKATLTADKSTSTAYMELSSLRSEDTAVYFCANGGAMDYWGQGTTVTVSS VL: DIQMTQSPSSLSASVGDRVTITCRASQDISNYLNWYQQKPGKVPKLLIYYTSRLHSGVPSRFSGSGSGTDFTLTISSLQPEDVATYYCQQDNTLPWTFGGGTKLEIK",0.52 µg/mL
9,"Hu14G12-19 (antibody, V domains shown, humanized) VH: QVQLVQSGAEVKKPGSSVKVSCKASGGTFSSSWMNWVKQAPGQGLEWIGRIYREDGHTNYNGKFKGRATLTADKSTSTAYMELSSLRSEDTAVYFCANGGAMDYWGQGTTVTVSS VL: DIQMTQSPSSLSASVGDRVTITCRASQDISNYLNWYQQKPGKVPKLLIYYTSRLHSGVPSRFSGSGSGTDFTLTISSLQPEDVATYYCQQDNTLPWTFGGGTKLEIK",0.4 µg/mL
10,"Hu14G12-20 (antibody, V domains shown, humanized) VH: QVQLVQSGAEVKKPGSSVKVSCKASGGTFSSSWMNWVKQAPGQGLEWIGRIYREDGHTNYNGKFKGRATLTADKSTSTAYMELSSLRSEDTAVYFCANGGAMDYWGQGTTVTVSS VL: DIQMTQSPSSLSASVGDRVTITCRASQDISNYLNWYQQKPGKVPKLLIYYTSRLHSGVPSRFSGSGSGTDYTLTISSLQPEDVATYFCQQDNTLPWTFGGGTKLEIK",0.32 µg/mL
11,"Hu14G12-21 (antibody, V domains shown, humanized) VH: QVQLVQSGAEVKKPGSSVKVSCKASGGTFSSSWMNWVKQAPGQGLEWIGRIYREDGHTNYNGKFKGRATITADKSTSTAYMELSSLRSEDTAVYFCANGGAMDYWGQGTTVTVSS VL: DIQMTQSPSSLSASVGDRVTITCRASQDISNYLNWYQQKPGKVPKLLIYYTSRLHSGVPSRFSGSGSGTDFTLTISSLQPEDVATYYCQQDNTLPWTFGGGTKLEIK",0.4 µg/mL
12,"Hu14G12-22 (antibody, V domains shown, humanized) VH: QVQLVQSGAEVKKPGSSVKVSCKASGGTFSSSWMNWVKQAPGQGLEWIGRIYREDGHTNYNGKFKGRATITADKSTSTAYMELSSLRSEDTAVYFCANGGAMDYWGQGTTVTVSS VL: DIQMTQSPSSLSASVGDRVTITCRASQDISNYLNWYQQKPGKVPKLLIYYTSRLHSGVPSRFSGSGSGTDYTLTISSLQPEDVATYFCQQDNTLPWTFGGGTKLEIK",0.45 µg/mL
13,"Hu14G12-35 (antibody, V domains shown, humanized) VH: QVQLVQSGAEVKKPGASVKVSCKASGYAFSSSWMNWVRQAPGQGLEWMGRIYREDGHTNYNGKFKGRVTMTADKSTTTAYMELSSLRSEDTAVYYCANGGAMDYWGQGTLVTVSS VL: EIVMTQSPATLSLSPGERATLSCRASQDISNYLNWYQQKPGQAPRLLIYYTSRLHSGIPARFSGSGSGTDYTLTISSLEPEDIAVYFCQQDNTLPWTFGGGTKVEIK",0.013 µg/mL
14,"Hu14G12-25 (antibody, V domains shown, humanized) VH: QVQLVQSGAEVKKPGSSVKVSCKASGYAFSSSWMNWVRQAPGQGLEWMGRIYREDGHTNYNGKFKGRVTITADKSTTTAYMELSSLRSEDTAVYYCANGGAMDYWGQGTLVTVSS VL: EIVMTQSPATLSLSPGERATLSCRASQDISNYLNWYQQKPGQAPRLLIYYTSRLHSGIPARFSGSGSGTDYTLTISSLEPEDIAVYFCQQDNTLPWTFGGGTKVEIK",0.006 µg/mL
15,"Hu14G12-30 (antibody, V domains shown, humanized) VH: QVQLVQSGAEVKKPGASVKVSCKASGYAFSSSWMNWVRQAPGQGLEWMGRIYREDGHTNYNGKFKGRVTMTADKSITTAYMELSRLRSDDTAVYYCANGGAMDYWGQGTLVTVSS VL: EIVMTQSPATLSLSPGERATLSCRASQDISNYLNWYQQKPGQAPRLLIYYTSRLHSGIPARFSGSGSGTDYTLTISSLEPEDIAVYFCQQDNTLPWTFGGGTKVEIK",0.01 µg/mL
16,"Hu14G12-40 (antibody, V domains shown, humanized) VH: QVQLVQSGAEVKKPGASVKVSCKASGYAFSSSWMNWVRQAPGQRLEWMGRIYREDGHTNYNGKFKGRVTITADKSATTAYMELSSLRSEDTAVYYCANGGAMDYWGQGTLVTVSS VL: EIVMTQSPATLSLSPGERATLSCRASQDISNYLNWYQQKPGQAPRLLIYYTSRLHSGIPARFSGSGSGTDYTLTISSLEPEDIAVYFCQQDNTLPWTFGGGTKVEIK",0.028 µg/mL
